Results on one protein are retold here after paper PMC6205632 (Nature structural & molecular biology, 2017).

The series concerns the molecule itself. The series is described as follows: SEC.

B1: MDM2 RING homodimer (MDM2 428-C), tag removed (domain or fragment)
chain: SSLPLNAIEPCVICQGRPKNGCIVHGKTGHLMACFTCAKKLKKRNKPCPVCRQPIQMIVLTYFP
Turning to B1, the binding result was “binds”.
